Target: the molecule itself
Test: SDS-PAGE/CBB staining of sucrose gradient liposome fractions; self-association (homo-tetramer)

B1: E. coli-derived water channel (AQPZ), full-length, with N-terminal native His tag and TEV protease recognition site, cell-free synthesized (other)
chain: MKDHLIHNVHKEEHAHAHNKDYDIPTTENLYFQGSSGSSGMFRKLAAECFGTFWLVFGGCGSAVLAAGFPELGIGFAGVALAFGLTVLTMAFAVGHISGGHFNPAVTIGLWAGGRFPAKEVVGYVIAQVVGGIVAAALLYLIASGKTGFDAAASGFASNGYGEHSPGGYSMLSALVVELVLSAGFLLVIHGATDKFAPAGFAPIAIGLALTLIHLISIPVTNTSVNPARSTAVAIFQGGWALEQLWFFWVVPIVGGIIGGLIYRTLLEKRD
notes: No cleavage of the tag by TEV is reported before the gels; Purified in DDM for Blue-Native PAGE, and in a phosphatidylcholine liposome fraction for SDS-PAGE; also called cell-free synthesized AQPZ
Question: Does B1 bind?
Answer: Result: binds

Reference: patent US20100291189A1 (RIKEN, published 2010)
